Each block holds one binder with its values, some of them ahead of it. Numbered stars: 1 amine (or outer) side, 2 acyl side, 3 side chain; on linkers, the order of the positions; unused ones are H or OH. * marks the point of attachment. C20 diacid = O=C(O)CCCCCCCCCCCCCCCCCCC(=O)*; C18 diacid = O=C(O)CCCCCCCCCCCCCCCCC(=O)*; γGlu = O=C(O)[C@H](CCC(=O)[*:2])N[*:1]; AEEA = NCCOCCOCC(=O)O
Experiments:
[1] = target: T1, human amylin 3(a) receptor (human calcitonin receptor co-expressed with RAMP-3) on BHK570/CRE-luc cells (human, UniProt P30988 25-474; O60896 24-148); assay: cell-based or functional assay
T1 sequence (looked up) 1: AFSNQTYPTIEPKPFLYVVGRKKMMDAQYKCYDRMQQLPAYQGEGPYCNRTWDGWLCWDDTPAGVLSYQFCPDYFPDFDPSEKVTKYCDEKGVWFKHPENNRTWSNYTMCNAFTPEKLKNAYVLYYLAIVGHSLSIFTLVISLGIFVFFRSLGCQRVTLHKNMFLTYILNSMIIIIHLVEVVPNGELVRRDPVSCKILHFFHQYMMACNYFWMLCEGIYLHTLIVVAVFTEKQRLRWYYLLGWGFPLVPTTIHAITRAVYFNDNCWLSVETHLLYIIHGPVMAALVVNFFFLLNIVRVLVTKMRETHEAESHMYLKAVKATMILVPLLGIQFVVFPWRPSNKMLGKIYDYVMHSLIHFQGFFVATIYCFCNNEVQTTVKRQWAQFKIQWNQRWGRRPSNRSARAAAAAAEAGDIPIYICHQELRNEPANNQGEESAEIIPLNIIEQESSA
T1 sequence (looked up) 2: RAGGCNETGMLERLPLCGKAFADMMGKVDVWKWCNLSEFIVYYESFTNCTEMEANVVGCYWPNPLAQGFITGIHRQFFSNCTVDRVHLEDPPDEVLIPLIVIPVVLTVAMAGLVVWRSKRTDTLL

[2] = target: T2, human calcitonin receptor on BHK570/CRE-luc cells (human, UniProt P30988 25-474); assay: cell-based or functional assay
T2 sequence (looked up): T1 sequence (looked up) 1

B2: [N-terminal(C20 diacid-gGlu), des1, 4G, 9T, 15Q, 21Q, 23Y, 30S, 31G, 32T, 33Y]mimylin (peptide)
peptide: {C20 diacid-γGlu}-ASGLSTATLGRLSQELHELQTYPRTETGSGTY-NH2
hAmylin-R funct. EC50 (pM), tested with HSA [1]: 122 pM
hCTR funct. EC50 (pM), tested with HSA [2]: 92 pM

B3: [N-terminal(C18 diacid-gGlu-2xOEG), des1, 4G, 9V, 15Q, 21Q, 23Y, 30S, 31G, 32T, 33Y]mimylin (peptide)
peptide: {C18 diacid-γGlu-AEEA-AEEA}-ASGLSTAVLGRLSQELHELQTYPRTETGSGTY-NH2
SMILES: CC(C)C[C@H](NC(=O)CNC(=O)[C@H](CO)NC(=O)[C@H](C)NC(=O)COCCOCCNC(=O)COCCOCCNC(=O)CC[C@H](NC(=O)CCCCCCCCCCCCCCCCC(=O)O)C(=O)O)C(=O)N[C@@H](CO)C(=O)N[C@H](C(=O)N[C@@H](C)C(=O)N[C@H](C(=O)N[C@@H](CC(C)C)C(=O)NCC(=O)N[C@@H](CCCNC(=N)N)C(=O)N[C@@H](CC(C)C)C(=O)N[C@@H](CO)C(=O)N[C@@H](CCC(N)=O)C(=O)N[C@@H](CCC(=O)O)C(=O)N[C@@H](CC(C)C)C(=O)N[C@@H](Cc1c[nH]cn1)C(=O)N[C@@H](CCC(=O)O)C(=O)N[C@@H](CC(C)C)C(=O)N[C@@H](CCC(N)=O)C(=O)N[C@H](C(=O)N[C@@H](Cc1ccc(O)cc1)C(=O)N1CCC[C@H]1C(=O)N[C@@H](CCCNC(=N)N)C(=O)N[C@H](C(=O)N[C@@H](CCC(=O)O)C(=O)N[C@H](C(=O)NCC(=O)N[C@@H](CO)C(=O)NCC(=O)N[C@H](C(=O)N[C@@H](Cc1ccc(O)cc1)C(N)=O)[C@@H](C)O)[C@@H](C)O)[C@@H](C)O)[C@@H](C)O)C(C)C)[C@@H](C)O
hAmylin-R funct. EC50 (pM), tested with HSA [1]: 80 pM
hCTR funct. EC50 (pM), tested with HSA [2]: 38 pM

B4: [N-terminal(C20 diacid-gGlu), des1, 4G, 9V, 15Q, 21Q, 23Y, 30S, 31A, 32T, 33Y]mimylin (peptide)
peptide: {C20 diacid-γGlu}-ASGLSTAVLGRLSQELHELQTYPRTETGSATY-NH2
SMILES: CC(C)C[C@H](NC(=O)CNC(=O)[C@H](CO)NC(=O)[C@H](C)NC(=O)CC[C@H](NC(=O)CCCCCCCCCCCCCCCCCCC(=O)O)C(=O)O)C(=O)N[C@@H](CO)C(=O)N[C@H](C(=O)N[C@@H](C)C(=O)N[C@H](C(=O)N[C@@H](CC(C)C)C(=O)NCC(=O)N[C@@H](CCCNC(=N)N)C(=O)N[C@@H](CC(C)C)C(=O)N[C@@H](CO)C(=O)N[C@@H](CCC(N)=O)C(=O)N[C@@H](CCC(=O)O)C(=O)N[C@@H](CC(C)C)C(=O)N[C@@H](Cc1c[nH]cn1)C(=O)N[C@@H](CCC(=O)O)C(=O)N[C@@H](CC(C)C)C(=O)N[C@@H](CCC(N)=O)C(=O)N[C@H](C(=O)N[C@@H](Cc1ccc(O)cc1)C(=O)N1CCC[C@H]1C(=O)N[C@@H](CCCNC(=N)N)C(=O)N[C@H](C(=O)N[C@@H](CCC(=O)O)C(=O)N[C@H](C(=O)NCC(=O)N[C@@H](CO)C(=O)N[C@@H](C)C(=O)N[C@H](C(=O)N[C@@H](Cc1ccc(O)cc1)C(N)=O)[C@@H](C)O)[C@@H](C)O)[C@@H](C)O)[C@@H](C)O)C(C)C)[C@@H](C)O
hAmylin-R funct. EC50 (pM), tested with HSA [1]: 77 pM
hCTR funct. EC50 (pM), tested with HSA [2]: 37 pM

B8: [N-terminal(C20 diacid-gGlu), des1, 2L, 4G, 9V, 15Q, 21Q, 23Y, 30S, 31Q, 32T, 33Y]mimylin (peptide)
peptide: {C20 diacid-γGlu}-LSGLSTAVLGRLSQELHELQTYPRTETGSQTY-NH2
SMILES: CC(C)C[C@H](NC(=O)CC[C@H](NC(=O)CCCCCCCCCCCCCCCCCCC(=O)O)C(=O)O)C(=O)N[C@@H](CO)C(=O)NCC(=O)N[C@@H](CC(C)C)C(=O)N[C@@H](CO)C(=O)N[C@H](C(=O)N[C@@H](C)C(=O)N[C@H](C(=O)N[C@@H](CC(C)C)C(=O)NCC(=O)N[C@@H](CCCNC(=N)N)C(=O)N[C@@H](CC(C)C)C(=O)N[C@@H](CO)C(=O)N[C@@H](CCC(N)=O)C(=O)N[C@@H](CCC(=O)O)C(=O)N[C@@H](CC(C)C)C(=O)N[C@@H](Cc1c[nH]cn1)C(=O)N[C@@H](CCC(=O)O)C(=O)N[C@@H](CC(C)C)C(=O)N[C@@H](CCC(N)=O)C(=O)N[C@H](C(=O)N[C@@H](Cc1ccc(O)cc1)C(=O)N1CCC[C@H]1C(=O)N[C@@H](CCCNC(=N)N)C(=O)N[C@H](C(=O)N[C@@H](CCC(=O)O)C(=O)N[C@H](C(=O)NCC(=O)N[C@@H](CO)C(=O)N[C@@H](CCC(N)=O)C(=O)N[C@H](C(=O)N[C@@H](Cc1ccc(O)cc1)C(N)=O)[C@@H](C)O)[C@@H](C)O)[C@@H](C)O)[C@@H](C)O)C(C)C)[C@@H](C)O
hAmylin-R funct. EC50 (pM), tested with HSA [1]: 140 pM
hCTR funct. EC50 (pM), tested with HSA [2]: 73 pM

Next, values leading:

hAmylin-R funct. EC50 (pM), tested with HSA [1]: 152 pM
hCTR funct. EC50 (pM), tested with HSA [2]: 72 pM
B1: [N-terminal(C20 diacid-gGlu), des1, 4G, 9V, 15Q, 21Q, 23Y, 25P, 30S, 31Q, 32T, 33Y]mimylin (peptide)
peptide: {C20 diacid-γGlu}-ASGLSTAVLGRLSQELHELQTYPPTETGSQTY-NH2
SMILES: CC(C)C[C@H](NC(=O)CNC(=O)[C@H](CO)NC(=O)[C@H](C)NC(=O)CC[C@H](NC(=O)CCCCCCCCCCCCCCCCCCC(=O)O)C(=O)O)C(=O)N[C@@H](CO)C(=O)N[C@H](C(=O)N[C@@H](C)C(=O)N[C@H](C(=O)N[C@@H](CC(C)C)C(=O)NCC(=O)N[C@@H](CCCNC(=N)N)C(=O)N[C@@H](CC(C)C)C(=O)N[C@@H](CO)C(=O)N[C@@H](CCC(N)=O)C(=O)N[C@@H](CCC(=O)O)C(=O)N[C@@H](CC(C)C)C(=O)N[C@@H](Cc1c[nH]cn1)C(=O)N[C@@H](CCC(=O)O)C(=O)N[C@@H](CC(C)C)C(=O)N[C@@H](CCC(N)=O)C(=O)N[C@H](C(=O)N[C@@H](Cc1ccc(O)cc1)C(=O)N1CCC[C@H]1C(=O)N1CCC[C@H]1C(=O)N[C@H](C(=O)N[C@@H](CCC(=O)O)C(=O)N[C@H](C(=O)NCC(=O)N[C@@H](CO)C(=O)N[C@@H](CCC(N)=O)C(=O)N[C@H](C(=O)N[C@@H](Cc1ccc(O)cc1)C(N)=O)[C@@H](C)O)[C@@H](C)O)[C@@H](C)O)[C@@H](C)O)C(C)C)[C@@H](C)O

hAmylin-R funct. EC50 (pM), tested with HSA [1]: 223 pM
hCTR funct. EC50 (pM), tested with HSA [2]: 142 pM
B5: [N-terminal(C20 diacid-gGlu), des1, 4G, 8L, 9V, 15Q, 21Q, 23Y, 30S, 31Q, 32T, 33Y]mimylin (peptide)
peptide: {C20 diacid-γGlu}-ASGLSTLVLGRLSQELHELQTYPRTETGSQTY-NH2
SMILES: CC(C)C[C@H](NC(=O)CNC(=O)[C@H](CO)NC(=O)[C@H](C)NC(=O)CC[C@H](NC(=O)CCCCCCCCCCCCCCCCCCC(=O)O)C(=O)O)C(=O)N[C@@H](CO)C(=O)N[C@H](C(=O)N[C@@H](CC(C)C)C(=O)N[C@H](C(=O)N[C@@H](CC(C)C)C(=O)NCC(=O)N[C@@H](CCCNC(=N)N)C(=O)N[C@@H](CC(C)C)C(=O)N[C@@H](CO)C(=O)N[C@@H](CCC(N)=O)C(=O)N[C@@H](CCC(=O)O)C(=O)N[C@@H](CC(C)C)C(=O)N[C@@H](Cc1c[nH]cn1)C(=O)N[C@@H](CCC(=O)O)C(=O)N[C@@H](CC(C)C)C(=O)N[C@@H](CCC(N)=O)C(=O)N[C@H](C(=O)N[C@@H](Cc1ccc(O)cc1)C(=O)N1CCC[C@H]1C(=O)N[C@@H](CCCNC(=N)N)C(=O)N[C@H](C(=O)N[C@@H](CCC(=O)O)C(=O)N[C@H](C(=O)NCC(=O)N[C@@H](CO)C(=O)N[C@@H](CCC(N)=O)C(=O)N[C@H](C(=O)N[C@@H](Cc1ccc(O)cc1)C(N)=O)[C@@H](C)O)[C@@H](C)O)[C@@H](C)O)[C@@H](C)O)C(C)C)[C@@H](C)O

hAmylin-R funct. EC50 (pM), tested with HSA [1]: 64 pM
hCTR funct. EC50 (pM), tested with HSA [2]: 34 pM
B6: [N-terminal(C20 diacid-gGlu), des1, 2L, 4G, 9V, 21S, 23Y, 30S, 31G, 32T, 33Y]mimylin (peptide)
peptide: {C20 diacid-γGlu}-LSGLSTAVLGRLSAELHELSTYPRTETGSGTY-NH2
SMILES: CC(C)C[C@H](NC(=O)CC[C@H](NC(=O)CCCCCCCCCCCCCCCCCCC(=O)O)C(=O)O)C(=O)N[C@@H](CO)C(=O)NCC(=O)N[C@@H](CC(C)C)C(=O)N[C@@H](CO)C(=O)N[C@H](C(=O)N[C@@H](C)C(=O)N[C@H](C(=O)N[C@@H](CC(C)C)C(=O)NCC(=O)N[C@@H](CCCNC(=N)N)C(=O)N[C@@H](CC(C)C)C(=O)N[C@@H](CO)C(=O)N[C@@H](C)C(=O)N[C@@H](CCC(=O)O)C(=O)N[C@@H](CC(C)C)C(=O)N[C@@H](Cc1c[nH]cn1)C(=O)N[C@@H](CCC(=O)O)C(=O)N[C@@H](CC(C)C)C(=O)N[C@@H](CO)C(=O)N[C@H](C(=O)N[C@@H](Cc1ccc(O)cc1)C(=O)N1CCC[C@H]1C(=O)N[C@@H](CCCNC(=N)N)C(=O)N[C@H](C(=O)N[C@@H](CCC(=O)O)C(=O)N[C@H](C(=O)NCC(=O)N[C@@H](CO)C(=O)NCC(=O)N[C@H](C(=O)N[C@@H](Cc1ccc(O)cc1)C(N)=O)[C@@H](C)O)[C@@H](C)O)[C@@H](C)O)[C@@H](C)O)C(C)C)[C@@H](C)O

hAmylin-R funct. EC50 (pM), tested with HSA [1]: 173 pM
hCTR funct. EC50 (pM), tested with HSA [2]: 77 pM
B7: [N-terminal(C20 diacid-gGlu), des1, 4G, 9T, 15Q, 21Q, 23Y, 25P, 30S, 31G, 32T, 33Y]mimylin (peptide)
peptide: {C20 diacid-γGlu}-ASGLSTATLGRLSQELHELQTYPPTETGSGTY-NH2
SMILES: CC(C)C[C@H](NC(=O)CNC(=O)[C@H](CO)NC(=O)[C@H](C)NC(=O)CC[C@H](NC(=O)CCCCCCCCCCCCCCCCCCC(=O)O)C(=O)O)C(=O)N[C@@H](CO)C(=O)N[C@H](C(=O)N[C@@H](C)C(=O)N[C@H](C(=O)N[C@@H](CC(C)C)C(=O)NCC(=O)N[C@@H](CCCNC(=N)N)C(=O)N[C@@H](CC(C)C)C(=O)N[C@@H](CO)C(=O)N[C@@H](CCC(N)=O)C(=O)N[C@@H](CCC(=O)O)C(=O)N[C@@H](CC(C)C)C(=O)N[C@@H](Cc1c[nH]cn1)C(=O)N[C@@H](CCC(=O)O)C(=O)N[C@@H](CC(C)C)C(=O)N[C@@H](CCC(N)=O)C(=O)N[C@H](C(=O)N[C@@H](Cc1ccc(O)cc1)C(=O)N1CCC[C@H]1C(=O)N1CCC[C@H]1C(=O)N[C@H](C(=O)N[C@@H](CCC(=O)O)C(=O)N[C@H](C(=O)NCC(=O)N[C@@H](CO)C(=O)NCC(=O)N[C@H](C(=O)N[C@@H](Cc1ccc(O)cc1)C(N)=O)[C@@H](C)O)[C@@H](C)O)[C@@H](C)O)[C@@H](C)O)[C@@H](C)O)[C@@H](C)O
